According to the supplement of paper PMC12764529:
± gives the half width of the 95% confidence interval.

Tests used:
[1] = folding stability dG unfold from chymotrypsin proteolysis; higher = more stable
Method in brief: (§1)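 Only designs with AlphaFold2 dimer inter-PAE above 15 were retained; each was a mini-protein under 80 residues with no cysteine, in a PA-tagged cDNA display construct. After digestion with trypsin and chymotrypsin and sequencing, K50 was inferred by Bayesian fitting of counts, and unfolding free energy was derived per protease or combined against a sequence-predicted unfolded-state K50 and a shared folded-state K50.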

[2] = folding stability dG unfold from trypsin proteolysis; higher = more stable
Method in brief: as §1

[3] = folding stability dG unfold (combined trypsin and chymotrypsin); higher = more stable
Method in brief: as §1

Row | Sequence | folding stability dG unfold [1] [kcal/mol] | folding stability dG unfold [2] [kcal/mol] | folding stability dG unfold [3] [kcal/mol]
1 | SAKTIPINIWGPLGDMDRMAEEIARMIARKLGLPANLKKIKIKFTEIEPWPDPDGKPRWVRMSIEIKVKSAG [r14_736_TrROS] | 3.61 ± 0.095 | 3.55 ± 0.06 | 3.45 ± 0.19
2 | SAKVKISIEFDKKTNKVTIKVKYKGDKEKEKEITLSLEELQKKLGKPLSLEEIIKLLKEKGIDEVEIYPSAG [r14_809_TrROS_Hall] | 4.26 ± 0.093 | 3.44 ± 0.14 | 4.06 ± 0.15
3 | SALDAKEIAEEFMKKFPPNFRDITVDVENTGNKRKIKIMFRMPNRYWTQEFDLDDGKIEIEPINPGQPLSAG [r14_737_TrROS] | 0.368 ± 0.15 | 0.862 ± 0.091 | 0.672 ± 0.066
4 | SALEANIKKAEELAKPEEKVPEFPVKVGDLYIKSVRFFPSTKKVVLFLPNGEKIEADPNVTLEEILKAISAG [r14_59_TrMRF] | 0.254 ± 0.13 | 0.759 ± 0.075 | 0.51 ± 0.15
5 | SALGEEEVLRALKAAAAPLPKVEPVLRKVTVLVPETGEPFEVEVLAYRLENGEIFPVPAEATEALAEALASA [r9_1056_TrMRF] | -0.1 ± 0.41 | -0.549 ± 0.36 | -0.274 ± 0.19
6 | SALLENGGIFISINLEWDPEYNWIRIKRFTIYWNGKVIATQPQWIPVPPPPPPPPPEREYNPNDPDNNKSAG [r14_571_TrROS] | 5.06 ± 0.085 | 3.19 ± 0.19 | 4.56 ± 0.16
7 | SALPALLEAAEAGESGTFIPIVADPEAAAVLRAVLERLGFTLVSEEPVPAGARPVFVGVYYFDPVSGRNRSA [r9_498_TrMRF] | 2.38 ± 0.17 | 1.1 ± 0.047 | 1.84 ± 0.091
8 | SALPPEVVRKLALDALRALYPDEPFVPVSMEVDPETGEVTVLVARPGPDDSLRLVRRTFRVLDDGRVLGSAG [r14_183_TrMRF] | 3.07 ± 0.071 | 2.8 ± 0.067 | 2.98 ± 0.062
9 | SALPPGAPPKPERLVLTLTVSEEEVKKGDLEKVRRLVEELVEALREAGFEVKEVEVVEEDGKLTVRIVLDSA [r9_75_TrROS_Hall] | 2.68 ± 0.17 | 3.04 ± 0.26 | 2.92 ± 0.36
10 | SALPYEVEKTSETFLPEEGLTVTEYKITLPDGSELYRRETFDPKTGVRTVTVYDPNGKKLETRTFTVPPSAG [r14_759_JUSTAS] | 2.49 ± 0.048 | 2.19 ± 0.038 | 2.4 ± 0.046
11 | SALTLEIELEFELEDGYRVTVRARLEFDPETNELTIEVEVRIEPLPPPPPPPETVLVKDENGNWHPLEDLSA [r9_898_TrROS_Hall] | 3.44 ± 0.16 | 3.22 ± 0.14 | 3.27 ± 0.15
12 | SALVPIKGKYPVYEMRPEKDPNGNMKPEMRPVKVPIEFPFVVIDPENGKWVPADDIDPEDGRLVAPGLISAG [r14_122_TrROS] | -0.25 ± 0.045 | 1.14 ± 0.051 | 0.598 ± 0.064
13 | SAMDFKAEKVEILKVEKLKDGTVKITVKVEVGKYVLNAEIPYGKDGKIEKIEAEIDLENNFMTYKVTVGSAG [r14_189_TrMRF] | 2.24 ± 0.13 | 1.58 ± 0.19 | 1.97 ± 0.33
14 | SAMEALEEAGFEVVEVEEVEERELPDGKRLVRLRITVRRDGKLVELEIVVPEENEEEALRAALELLREESAG [r14_726_TrROS_Hall] | 4.4 ± 0.099 | 4.49 ± 0.18 | 4.44 ± 0.11
15 | SAMEITETSLDSSTLYTFPGRRITITTTPDSYTITITLPDGTPVTLNFPPTMPLDEVKKKVIETLLASSSAG [r14_618_JUSTAS] | 1.24 ± 0.16 | 0.935 ± 0.05 | 1.19 ± 0.12
16 | SAMEITIEKDENGNIRITLKLDGAEIIEEKEVPPGEKEKTIKIKVDGKVLELTIKDGKIEIKEVSPEDLSAG [r14_403_TrROS_Hall] | 3.55 ± 0.1 | 2.93 ± 0.14 | 3.44 ± 0.13
17 | SAMEVVEERELPDGTTVVTIPDPATGDTVVLVTDPEGKITVYTYPSSTGIPTEEVFPDLSVEEAIARLASAG [r14_760_JUSTAS] | 0.858 ± 0.071 | 0.645 ± 0.046 | 0.775 ± 0.058
18 | SAMIIIRVKSKEELEEAIRRLAEELGIEDATLEQIREALLRAGAKIVSIERDPEREDYVLIVIELPPEPSAG [r14_678_TrROS_Hall] | 4.1 ± 0.084 | 4.01 ± 0.1 | 4.05 ± 0.071

Row | Sequence | folding stability dG unfold [1] [kcal/mol] | folding stability dG unfold [2] [kcal/mol] | folding stability dG unfold [3] [kcal/mol]
19 | SAMILPKTVPKTITYPGSEEEARAVAEAEAARLKAQGNVTVDITFVKKSPEGGYTIEITITDYAPPELLSAG [r14_413_JUSTAS] | 0.933 ± 0.28 | 0.77 ± 0.12 | 0.861 ± 0.23
20 | SAMITITLPNGTPVNVEVTVTETRASPDGTLTTTDYELTFHPPDGVPRRGKGTVLSDPATGTTTITIIESAG [r14_789_JUSTAS] | 1.45 ± 0.028 | 1.47 ± 0.041 | 1.48 ± 0.042
21 | SAMITVPFTFPAEKAEEILEDPELKELLEKLEKELGAKVVKIEVSPETVPSGSKTTEYVKFTFTIEKKGSAG [r14_819_JUSTAS] | 1.8 ± 0.16 | 1.2 ± 0.032 | 1.55 ± 0.16
22 | SAMKEAKIVSIEFDEETGTVTIEIEVPPGAKLKIRFLDTGEELEVEVKPGETITITVPKEPILIEIELESAG [r14_96_TrROS_Hall] | 4.09 ± 0.24 | 3.43 ± 0.18 | 3.79 ± 0.54
23 | SAMKEGETVRIELVVVVPPGASVEELADALRALFGPDAEIRVEVEEVTVEVDGKTYRVLTVRVEIRLRKSAG [r14_633_TrROS_Hall] | 4.5 ± 0.059 | 3.44 ± 0.05 | 4.18 ± 0.057
24 | SAMKEGQRLLVVKITIYNKNGEKVEELELVVPEEDKEKALEAAKKLAEELAKKLNLEIKIEVEEVPLPPSAG [r14_146_TrROS_Hall] | 4.02 ± 0.078 | 3.14 ± 0.2 | 3.86 ± 0.13
25 | SAMKEMTAEELAKKLEEELRKLFPDVEIKVEIVEVKEDYVVIKVEITVRLKKPDGKEVEFKLELVLKVDSAG [r14_187_TrROS_Hall] | 3.55 ± 0.15 | 3.1 ± 0.41 | 3.4 ± 0.32
26 | SAMKFKITEVKIISVEKKKDGKKTIVIEMKVEKGEEKITIEFDKNGKIKKVSVEKLPDGKTVRVTIEIDSAG [r14_189_TrROS_Hall] | 2.95 ± 0.087 | 1.49 ± 0.28 | 2.52 ± 0.49
27 | SAMKIEPVPDPEHGRTYYTIKFKGAEVQIWENPGQYYISIRPPGNNKQIVIPAPPNDIDDILKELGIKPSAG [r14_4_TrROS] | 1.71 ± 0.16 | 1.06 ± 0.032 | 1.4 ± 0.17
28 | SAMKIKPVPDPVTGKTKYVIDFGDAEVVIYHFPNSYRIEVRKKPDNKTIVIEAKPNEIEEVLKELGLPASAG [r14_4_TrMRF] | 1.85 ± 0.12 | 1.4 ± 0.12 | 1.86 ± 0.16
29 | SAMKIYTLPDGSRLIVIPDPYSDSLSVLLVTRSPDGTYHVTLIRYHPNGEKETFTRTGDLETAIRELLSSAG [r14_179_TrMRF] | 3.588 ± 0.028 | 3.55 ± 0.077 | 3.67 ± 0.091
30 | SAMKKITLDVYRPPDKLLVTVSFPETGKTVTLPFTSEEALREEIVKKLGLSPEELEIVDRKEKELSPELLSA [r9_909_JUSTAS] | 0.623 ± 0.074 | 0.194 ± 0.054 | 0.46 ± 0.13
31 | SAMKKVEIEIEVVEVDGELYILIKIKAETPEEVKEAAEKLLKELGLPPEAEVEVVEKDGEVYILIRLKPSAG [r14_804_TrROS_Hall] | 4.53 ± 0.05 | 3.08 ± 0.082 | 4.17 ± 0.13
32 | SAMKLEAPVVLDGKPVEVEFDAEPFEAPDGDVYYLVPLKVTFPDGRTYTARLRLKPGGKIVSVELLSDESAG [r14_341_TrMRF] | 1.31 ± 0.19 | 1.93 ± 0.028 | 1.77 ± 0.061
33 | SAMKLPPGVEAEVLEVTVDEEVTITIKLEDETVVIVNEKTGEVTVIKPGETVTITMKPGEKLRIIVIKPSAG [r14_385_TrROS_Hall] | 1.65 ± 0.047 | 3.2 ± 0.28 | 2.58 ± 0.24
34 | SAMKLTVSSSSPEEAQAQAEALKAQLRAELAAAGHPGAEVPVEITVTAVPPPVPVDVADPTSDRWSPTPSAG [r14_475_JUSTAS] | -0.694 ± 0.18 | 0.804 ± 0.033 | 0.393 ± 0.07
35 | SAMKNMTPEEVAKLIEEEIRKLYPNAEVKVEVLDAPEDYLVLKVHVTVIEPEEEGEIREFPFLVVIDLSSAG [r14_187_TrMRF] | 3.31 ± 0.062 | 3.47 ± 0.15 | 3.33 ± 0.09
